Measured values from US20030082736A1 (IMMUNEX, published 2003).

Biological target: T1, TNF (125I-TNF) (human, UniProt P01375 77-233, limits assumed, radioiodinated (125I) where used as labeled ligand)
T1 construct: It may be the same FLAG-TNFα as m1; also called 125I-labeled TNF
Test: TNF binding assay on product of transfected COS-7 cells

T1 sequence (P01375 77-233 limits assumed): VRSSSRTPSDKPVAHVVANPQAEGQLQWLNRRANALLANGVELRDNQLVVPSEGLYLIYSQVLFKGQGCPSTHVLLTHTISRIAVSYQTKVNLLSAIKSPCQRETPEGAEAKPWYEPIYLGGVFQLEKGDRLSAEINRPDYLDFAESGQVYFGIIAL

- binding result: no binding
B1: soluble huTNF-RΔ142 (receptor)
chain: LPAQVAFTPYAPEPGSTCRLREYYDQTAQMCCSKCSPGQHAKVFCTKTSDTVCDSCEDSTYTQLWNWVPECLSCGSRCSSDQVETQACTREQNRICTCRPGWYCALSKQEGCRLCAPLRKCRPGFGVARPGTETSDVVCKPC
notes: Transfected into COS-7 cells; also called huTNF-R?142; product of psolTNFRΔ142/CAVNOT
